Drawing on paper PMC4941327, this text covers Kd, koff and kon for one substance.

In general, koff refers to the first-order rate constant of dissociation. High values mean fast dissociation, low ones slow dissociation. Usually kon stands for a measure of how fast the partners come together. Read a low kon as slow association.

The assay deals with mAb04-MICA antibody fusion protein (human) (UniProt Q29983). The assay is described as follows: SPR; Biacore X100; mAb04-MICA captured on a CM5 chip by anti-human IgG (Fc) antibody; soluble NKG2D injected at 7.8125-250 nM; HBS-EP pH 7.4; bivalent analyte model (the results say 2:1 binding model).
Chain of UniProt Q29983 (Q29983 whole entry, looked up, the tested form may be a part): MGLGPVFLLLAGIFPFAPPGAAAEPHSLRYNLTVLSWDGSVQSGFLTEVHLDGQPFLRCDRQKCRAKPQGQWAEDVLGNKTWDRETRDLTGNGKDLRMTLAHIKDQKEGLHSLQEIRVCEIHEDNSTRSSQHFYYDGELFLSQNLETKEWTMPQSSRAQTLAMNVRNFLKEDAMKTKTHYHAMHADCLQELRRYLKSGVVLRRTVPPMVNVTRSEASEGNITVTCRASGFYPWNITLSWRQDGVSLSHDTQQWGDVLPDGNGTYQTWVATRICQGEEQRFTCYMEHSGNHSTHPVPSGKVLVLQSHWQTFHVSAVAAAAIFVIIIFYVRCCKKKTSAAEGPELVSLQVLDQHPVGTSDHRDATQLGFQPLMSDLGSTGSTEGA

“soluble recombinant NKG2D (from UniProt P26718 1-216) (receptor)” displayed a Kd of 0.71 µM, an off-rate (koff) of 188 s⁻¹ and an on-rate constant (kon) of 2.65e+08 M⁻¹ s⁻¹.
